{
  "source": "patent US20130089875A1",
  "binders": {"B1": {"name": "digoxygenylated insulin-like-growth-factor-binding-protein-4 (protein)", "chain": "DEAIHCPPCSEEKLARCRPPVGCEELVREPGCGCCATCALGLGMPCGVYTPRCGSGLRCYPPRGVEKPLHTLMHGQGVCMELAEIEAIQESLQPSDKDEGDHPNNSFSPCSAHDRRCLQKHFAKIRDRSTSGGKMKVNGAPREDARPVPQGSCQSELHRALERLAASQSRTHEDLYIIPIPNCDRNGNFHPKQCHPALDGQRGKCWCVDRKTGVKLPGGLEPKGELDCHQLADSFRE", "modifications": "digoxigenin coupled through digoxigenin 3-O-methylcarbonyl-epsilon-aminocaproic acid-N-hydroxysuccinimide ester (amine-reactive), molar ratio 1:5; positions not given"}},
  "key": {"[1]": {"biological_target": "PEGylated insulin-like-growth-factor I (human) (UniProt P05019)", "experiment": "sandwich ELISA: PEG-IGF-I at 0.13 ng/ml captured by biotinylated anti-PEG antibody on Streptavidin plate; dig-IGFBP-4 at 100 ng/ml; anti-digoxygenin-HRP/ABTS"}, "[2]": {"biological_target": "PEGylated insulin-like-growth-factor I (human) (UniProt P05019)", "experiment": "sandwich ELISA: PEG-IGF-I at 2.00 ng/ml captured by biotinylated anti-PEG antibody on Streptavidin plate; dig-IGFBP-4 at 100 ng/ml; anti-digoxygenin-HRP/ABTS"}, "[3]": {"biological_target": "PEGylated insulin-like-growth-factor I (human) (UniProt P05019)", "experiment": "sandwich ELISA: PEG-IGF-I at 0.50 ng/ml captured by biotinylated anti-PEG antibody on Streptavidin plate; dig-IGFBP-4 at 100 ng/ml; anti-digoxygenin-HRP/ABTS"}, "[4]": {"biological_target": "PEGylated insulin-like-growth-factor I (human) (UniProt P05019)", "experiment": "sandwich ELISA: PEG-IGF-I at 0.06 ng/ml captured by biotinylated anti-PEG antibody on Streptavidin plate; dig-IGFBP-4 at 100 ng/ml; anti-digoxygenin-HRP/ABTS"}, "[5]": {"biological_target": "PEGylated insulin-like-growth-factor I (human) (UniProt P05019)", "experiment": "sandwich ELISA: PEG-IGF-I at 0.13 ng/ml captured by biotinylated anti-PEG antibody on Streptavidin plate; dig-IGFBP-4 at 100 ng/ml; anti-digoxygenin-HRP/ABTS; mean of three"}, "[6]": {"biological_target": "PEGylated insulin-like-growth-factor I (human) (UniProt P05019)", "experiment": "sandwich ELISA: PEG-IGF-I at 1.00 ng/ml captured by biotinylated anti-PEG antibody on Streptavidin plate; dig-IGFBP-4 at 100 ng/ml; anti-digoxygenin-HRP/ABTS"}, "[7]": {"biological_target": "PEGylated insulin-like-growth-factor I (human) (UniProt P05019)", "experiment": "sandwich ELISA: PEG-IGF-I at 0.03 ng/ml captured by biotinylated anti-PEG antibody on Streptavidin plate; dig-IGFBP-4 at 100 ng/ml; anti-digoxygenin-HRP/ABTS"}, "[8]": {"biological_target": "PEGylated insulin-like-growth-factor I (human) (UniProt P05019)", "experiment": "sandwich ELISA: PEG-IGF-I at 1.00 ng/ml captured by biotinylated anti-PEG antibody on Streptavidin plate; dig-IGFBP-4 at 100 ng/ml; anti-digoxygenin-HRP/ABTS; mean of three"}, "[9]": {"biological_target": "PEGylated insulin-like-growth-factor I (human) (UniProt P05019)", "experiment": "sandwich ELISA: PEG-IGF-I at 0.50 ng/ml captured by biotinylated anti-PEG antibody on Streptavidin plate; dig-IGFBP-4 at 100 ng/ml; anti-digoxygenin-HRP/ABTS; mean of three"}, "[10]": {"biological_target": "PEGylated insulin-like-growth-factor I (human) (UniProt P05019)", "experiment": "sandwich ELISA: PEG-IGF-I at 0.03 ng/ml captured by biotinylated anti-PEG antibody on Streptavidin plate; dig-IGFBP-4 at 100 ng/ml; anti-digoxygenin-HRP/ABTS; mean of three"}, "[11]": {"biological_target": "PEGylated insulin-like-growth-factor I (human) (UniProt P05019)", "experiment": "sandwich ELISA: PEG-IGF-I at 0.25 ng/ml captured by biotinylated anti-PEG antibody on Streptavidin plate; dig-IGFBP-4 at 100 ng/ml; anti-digoxygenin-HRP/ABTS; mean of three"}, "[12]": {"biological_target": "PEGylated insulin-like-growth-factor I (human) (UniProt P05019)", "experiment": "sandwich ELISA: PEG-IGF-I at 2.00 ng/ml captured by biotinylated anti-PEG antibody on Streptavidin plate; dig-IGFBP-4 at 100 ng/ml; anti-digoxygenin-HRP/ABTS; mean of three"}, "[13]": {"biological_target": "PEGylated insulin-like-growth-factor I (human) (UniProt P05019)", "experiment": "sandwich ELISA: PEG-IGF-I at 0.25 ng/ml captured by biotinylated anti-PEG antibody on Streptavidin plate; dig-IGFBP-4 at 100 ng/ml; anti-digoxygenin-HRP/ABTS"}, "[14]": {"biological_target": "PEGylated insulin-like-growth-factor I (human) (UniProt P05019)", "experiment": "sandwich ELISA: PEG-IGF-I at 0.06 ng/ml captured by biotinylated anti-PEG antibody on Streptavidin plate; dig-IGFBP-4 at 100 ng/ml; anti-digoxygenin-HRP/ABTS; mean of three"}},
  "data": [
    {"binder": "B1", "values": [
      {"measurement": "OD (absorption signal), Sample No. 1", "setting": "[1]", "value": 0.439, "unit": "OD"},
      {"measurement": "OD (absorption signal), Sample No. 2", "setting": "[1]", "value": 0.428, "unit": "OD"},
      {"measurement": "OD (absorption signal), Sample No. 3", "setting": "[1]", "value": 0.436, "unit": "OD"},
      {"measurement": "OD (absorption signal), Sample No. 1", "setting": "[2]", "value": 2.04, "unit": "OD"},
      {"measurement": "OD (absorption signal), Sample No. 2", "setting": "[2]", "value": 2.06, "unit": "OD"},
      {"measurement": "OD (absorption signal), Sample No. 3", "setting": "[2]", "value": 2, "unit": "OD"},
      {"measurement": "OD (absorption signal), Sample No. 1", "setting": "[3]", "value": 1.21, "unit": "OD"},
      {"measurement": "OD (absorption signal), Sample No. 2", "setting": "[3]", "value": 1.25, "unit": "OD"},
      {"measurement": "OD (absorption signal), Sample No. 3", "setting": "[3]", "value": 1.22, "unit": "OD"},
      {"measurement": "OD (absorption signal), Sample No. 1", "setting": "[4]", "value": 0.25, "unit": "OD"},
      {"measurement": "OD (absorption signal), Sample No. 2", "setting": "[4]", "value": 0.252, "unit": "OD"},
      {"measurement": "OD (absorption signal), Sample No. 3", "setting": "[4]", "value": 0.243, "unit": "OD"},
      {"measurement": "OD (absorption signal), mean", "setting": "[5]", "value": 0.434, "unit": "OD"},
      {"measurement": "OD (absorption signal), Sample No. 1", "setting": "[6]", "value": 1.66, "unit": "OD"},
      {"measurement": "OD (absorption signal), Sample No. 2", "setting": "[6]", "value": 1.66, "unit": "OD"},
      {"measurement": "OD (absorption signal), Sample No. 3", "setting": "[6]", "value": 1.73, "unit": "OD"},
      {"measurement": "OD (absorption signal), Sample No. 1", "setting": "[7]", "value": 0.141, "unit": "OD"},
      {"measurement": "OD (absorption signal), Sample No. 2", "setting": "[7]", "value": 0.159, "unit": "OD"},
      {"measurement": "OD (absorption signal), Sample No. 3", "setting": "[7]", "value": 0.149, "unit": "OD"},
      {"measurement": "OD (absorption signal), mean", "setting": "[8]", "value": 1.69, "unit": "OD"},
      {"measurement": "OD (absorption signal), mean", "setting": "[9]", "value": 1.23, "unit": "OD"},
      {"measurement": "OD (absorption signal), mean", "setting": "[10]", "value": 0.15, "unit": "OD"},
      {"measurement": "OD (absorption signal), mean", "setting": "[11]", "value": 0.752, "unit": "OD"},
      {"measurement": "OD (absorption signal), mean", "setting": "[12]", "value": 2.03, "unit": "OD"},
      {"measurement": "OD (absorption signal), Sample No. 1", "setting": "[13]", "value": 0.757, "unit": "OD"},
      {"measurement": "OD (absorption signal), Sample No. 2", "setting": "[13]", "value": 0.734, "unit": "OD"},
      {"measurement": "OD (absorption signal), Sample No. 3", "setting": "[13]", "value": 0.766, "unit": "OD"},
      {"measurement": "OD (absorption signal), mean", "setting": "[14]", "value": 0.248, "unit": "OD"}
    ]}
  ]
}
